{"source": "the DeepSol protein solubility set"}
{"experiment": "soluble on expression in E. coli; label from the status in PepcDB or PDB records"}
{"sequence": "MQIVTDKNKVALYYKDIAVTYKEFILNTKKIKQFTKIKEFTNNMIYMENRPELLYSFFAIWDSRATCVCIDASSTAVELTYYIDNSDVVKIFTTKMQVEKVKGALSILSKQIEIIVVDEINLSEIKIDENSSENLVINSPEKEDTALILYTSGTTGKPKGVMLTFDLEHHHHHH", "soluble on expression in E. coli": "not soluble"}
{"sequence": "MMPGYQSADEFADKEKGWTGVHQWEKEMAKADEKYGPIFAKFAAMPIEEVAKDPQAVKMGGRLFASNCSICHGSDAKGAYGFPNLTDADWRWGGEPETIKTTIMAGRHAAMPAWGEVIGEEGVKNVAAFVLTQMDGRKLPEGAKADIEAGKQVFATTCVACHGPEGKGTPAMGAPDLTHPGAFIYGSSFAQLQQTIRYGRQGVMPAQQEHLGNDKVHLLAAYVYSLSHGE", "soluble on expression in E. coli": "not soluble"}
{"sequence": "MSQRPTSSHDSSAPHHIPVDDCLTYDTGYRPNLPGQRTWWVFCPVTGAFDNSYALLGAMIECVARGQATLAPAWDRTFAGGIWYDFDCGADVLDGRLLMDMAVDDMQRRIERYMSTNDGQMGCKPALGFR", "soluble on expression in E. coli": "not soluble"}
{"sequence": "GPGSMEQPKGINILITGTPGTGKTSMAEMIAAELDGFQHLEVGKLVKENHFYTEYDTELDTHIIEEKDEDRLLDFMEPIMVSRGNHVVDYHSSELFPERWFHMVVVLHTSTEVLFERLTKRQYSEAKRAENMEAEIQCICEEEARDAYEDDIVLVRENDTLEQMAATVEEIRERVEVLKVERGL", "soluble on expression in E. coli": "soluble"}
{"sequence": "MSSSQELRSNFYREKNLMETVFDALKAMGKATSIELAARLDISREEVLNELWELKKAGFVDKSAYTWRVADNNVQQEQPAQAELPEEITTATVAKISECDLTATIEQRGPQTADELATLFGTTSRKVASTLAMAISKGRLIRVNQGGKFRYCIPGDNLPAEPKAASVSPLWLSASSSACHGVLIITVITPSPTKNSATKMPENLEHHHHHH", "soluble on expression in E. coli": "not soluble"}
{"sequence": "EGCYVATLEKCATCSQPILDRILRAMGKAYHPGCFTCVVCHRGLDGIPFTVDATSQIHCIEDFHRKFA", "soluble on expression in E. coli": "soluble"}
{"sequence": "MVNTLAFEYSYKALIVYCRINNNNFSLVKLKSNLNFSVPKIFNDFVIKNNIDLNQIELIINSCGPGSFTGLRISLSFVKGLALGLSIPFVNISTLDVFANLVENNPSAVVLTFTAGKYFLGNYKNCKLIGKILCFSKKDLFEYLNQIDPNSVLIGNNLEDVCKECNYKFKIIENLSSFGKILTELGVAKYLKNRKGDDILSGPLYIRQSDAEVNFHSLEHHHHHH", "soluble on expression in E. coli": "not soluble"}
{"sequence": "MVIVLVVDSFKDTSNGTSMTAFRFFEALKKRGHVMRVVAPHVDNLGSEEEGYYNLKERYIPLVTEISHKQHILFAKPDEKILRKAFKGADMIHTYLPFLLEKTAVKIAREMQVPYIGSFHLQPEHISYNMKLGWFSWFNMMLFSWFKSSHYRYIHHIHCPSKFIVEELEKYNYGGKKYAISNGFDPMFRFEHPQKSLFDTTPFKIAMVGRYSNEKNQSVLIKAVALSKYKQDIVLLLKGKGPDEKKIKLLAQKLGVKAEFGFVNSNELLEILKTCTLYVHAANVESEAIACLEAISVGIVPVIANSPLSATRQFALDERSLFEPNNAKDLSAKIDWWLENKLERERMQNEYAKSALNYTLENSVIQIEKVYEEAIRDFKNNPHLFKTLSLEHHHHHH", "soluble on expression in E. coli": "soluble"}
{"sequence": "MSRDGQNGTATFYFDEPQALVGEVRQDITGMYLLDDEGELATREVKAKFINGQPAGLEAVYLMRSPEEWDRFMRFMQRYAEANGLGFTEALEHHHHHH", "soluble on expression in E. coli": "not soluble"}
{"sequence": "AIAQRFLDSISAATQAKSPAEHETLVAMADLYAIITCVEYLERAWRANAVSDEDYTRNCSRLIAQFRATRQLVMDDVPSVISFLEEYHLAARAAMNRLQVGVPATVEHANSSDETRRRNFTAAAIQATEAFLTFRDALELGERSVDRLLPYLREILLVLGRMGAVFGTADGDATVQRERIVQWVRRLDAMHAYEQITEEDKRQLAHDVDTLYDTFRRRVGELEM", "soluble on expression in E. coli": "soluble"}
{"sequence": "MTALFCLELRTNIFLIMNDCIIINYWKGFIFSFHSYFFPFRFESSLRAHYPGKRNYSDFSVIPLPYYIDVRSFHICESQHIIALPLQIPLPYRMLIRMYPV", "soluble on expression in E. coli": "soluble"}
{"sequence": "MMHFEVHGRTDAEAPTILLSSGLGGSSAYWLPQIEALSDHFRIVTYDHRGTGRTGGEVPTEGGISAMADDVLEIVSALNLEKFHFMGHALGGLIGLDIALRQPRLIDRLVLINAWSKADPHSGRCFDVRIELLEKSGVDAFVKAQPLFLYPAAWMSEHQERLARDDAHGVAHFQGKTNVLRRIAALRAFDIDARLGEIGNPVLVVATKDDLLVPYTRSLRLAEGLPQSELCLLDFGAHAVNITEPDLFNTRLLQFLLPADQT", "soluble on expression in E. coli": "not soluble"}
{"sequence": "MSLEYNDVVEAVISALKKAHTELPEDVVTAIKKAYDSEENDIAKRNLEAILKNIEAAKKLGVPMCQDTGIPVFFVEVGRELCLDFDLKEAIVEGVRKATAEIPLRPNAVHPITRENSGDNTGLGIPQINVELVKGDELRMVVMPKGAGSENVSALKMMLPTQVDKIKDFVVETVKNAGGKPCPPIFVGVGVGSTFDGAAKLAKKALLRNVLEMNDFELELLEAVNELGIGAMGLGGKYTALAVLVEFGHCHTASLPVAVNIQCWANRRAEVVLREGGSHHHHHH", "soluble on expression in E. coli": "soluble"}
{"sequence": "MSLKITSISVQQKNKERYNIFIDEKYNFSVDEEVLARYQLMKGKTLTEADIEEIKQADMVRKGLNKAINFLSHRVRSEKEIRDYLRKQEMEPFAVDEILKKLADMDYINDVEFAELYTKTQIKTTLKGPRTIERELVEKGLTREIISQVMEEYASDIQLENATKQAMKIMKRNNKSAKKMLQQKIITDLIQKGYSSEVAKMAAIEATSELDVADEADILQKQVEKTIRKNKRYKPSIAKQKTITSLMQKGFSYDTIQSYLTENEISEGHHHHHH", "soluble on expression in E. coli": "not soluble"}
{"sequence": "MSEKLQKVLARAGHGSRREIESIIEAGRVSVDGKIAKLGDRVEVTPGLKIRIDGHLISVRESAEQICRVLAYYKPEGELCTRNDPEGRPTVFDRLPKLRGARWIAVGRLDVNTCGLLLFTTDGELANRLMHPSREVEREYAVRVFGQVDDAKLRDLSRGVQLEDGPAAFKTIKFSGGEGINQWYNVTLTEGRNREVRRLWEAVGVQVSRLIRVRYGDIPLPKGLPRGGWTELDLAQTNYLRELVELPPETSSKVAVEKDRRRMKANQIRRAVKRHSQVSGGRRSGGRNNNG", "soluble on expression in E. coli": "soluble"}
{"sequence": "RHMRIAVIGGGSSYTPELVKGLLDISEDVRIDEVIFYDIDEEKQKIVVDFVKRLVKDRFKVLISDTFEGAVVDAKYVIFQFRPGGLKGRENDEGIPLKYGLIGQETTGVGGFSAALRAFPIVEEYVDTVRKTSNATIVNFTNPSGHITEFVRNYLEYEKFIGLCNVPINFIREIAEMFSARLEDVFLKYYGLNHLSFIEKVFVKGEDVTEKVFENLKLKLSNIPDEDFPTWFYDSVRLIVNPYLRYYLMEKKMFKKISTHELRAREVMKIEKELFEKYRTAVEIPEELTKRGGSMYSTAAAHLIRDLETDEGKIHIVNTRNNGSIENLPDDYVLEIPCYVRSGRVHTLSQGKGDHFALSFIHAVKMYERLTIEAYLKRSKKLALKALLSHPLGPDVEDAKDLLEEILEANREYVKLG", "soluble on expression in E. coli": "soluble"}
{"sequence": "MGSDKIHHHHHHMVNLMNINSHYLHNNSHECVSLSVRSKGTTQCPDIKVTQKAHIELGTLATPQLVRRRSGRYTIRLRLKGHAKPFISVSTRTTNRSIAVMRQKELATTAKAFLLDNPEVSKEELREHLKAMAEWLLTEATDDYWNGLDIAWLEDAKVNLRNIAATERLSAVQQTHIVESLKVLEAGQKRVDYGDATGLLDFVADDNTDSANNHTQGSTIGVLSSNLENQQGGSSSVFTYDDLVSMTLAEKITTLATSSYRDLQSSFSTVRGYAPVDLMDRSAWLKARDELLANGKAAITVNKLFVKVRMAIDYALMNGHLQGRNPIEKMKLTKDAESKRRAMTDEEIQMVLKAAESAPEARRWAVLVSIITGARSAEVAQLTKENIVVVDGITCIDINDDEGKKVKNKHSIRLIPLIDGAYGFNLEAFLKFVNTREPKTAIFGMTAGTYTAYFGRSIKGSIDALKDTKNVCMHSLRHSLTGKLKAAGVPLADAQGVLGHSSQSITYDLYGKGHAIGRLSDALRLALSGTGQ", "soluble on expression in E. coli": "not soluble"}
{"sequence": "MGSDKIHHHHHHMHIKILKNRYPNIVVSKNPIKSSSDTISFFEEPYYFTIPKSNLSEEEAMLLHTLFPEPLPTFPKESTQFWFDLLFGNKELAMTNEKETYRITQFHIKTTTTKSMLQEWQKALLSFFSPEAELIMFSTNYGVIIEKSTGSLLGEEELIAVAGTLENDFYIQSTFFMGLFHPLNDRLRGLFAEERAIFNHNNREVVQTVASESLKVIALRMKESLITNELNDLFHQDDTWIPLIHTLFKNQGNISLTAKELFMHRNTIQYRLDKFYEQTNLSLRKMDGLLLAYLSTLQTNNSNHE", "soluble on expression in E. coli": "not soluble"}
{"sequence": "MGSDKIHHHHHHMLAIEESQKLTLSNLPSLSLFTGTDQGQFEVMKSQMLKQIGYDSADLNFAYFDMKEVVYKDVELELVSLPFFADEKIVILDYFMDITTAKKRFLTDDELKSFEEYLDNPSPTTKLIIFAEGKLDSKRRLVKLLKRDAKAFDAVEVKEQELRQYFQKWSQKQGLQFTNHSFENLLIKSGFQFSEIQKNLLFLQSYKANSVIEEEDIVNAIPKTLQDNIFDLTQFILTKKMDQARDLVRDLTLQGEDEIKLIAVMLGQFRTFTQVKILAESGQTESQIASSLGSYLGRNPNPYQIKFALRDSRGLSLSFLKQAISYLIETDYQIKTGLYEKGFLFEKALLQIASQVN", "soluble on expression in E. coli": "not soluble"}
{"sequence": "MPANKLVALTFDDGPDNVLTARVLDKLDKYNVKATFMVVGQRVNDSTAAIIRRMVNSGHEIGNHSWSYSGMANMSPDQIRKSIADTNAVIQKYAGTTPKFFRPPNLETSPTLFNNVDLVFVGGLTANDWIPSTTAEQRAAAVINGVRDGTIILLHDVQPEPHPTPEALDIIIPTLKSRGYEFVTLTELFTLKGVPIDPSVKRMYNSVPLEHHHHHH", "soluble on expression in E. coli": "soluble"}
{"sequence": "MSVLDISIIIANYNTEEFLRNCLNSIKSTVKNVKYEVIVTDNNSKDDSVTMIKNEFPWVKLIESKINGGFAYANNLAIKESSGKYIFLLNTDTVLLKDVIEKMVNYMDENKDVGLLGPKLLNRDMSHQTSVSGFPSFKREFYHIYKLKNILKIPILKKIIVAMSGKIGSKDVEQYMMNFKSIDEPREVQVLVGAALLVRRNVIDKIGMLDERYFMYYEEIDFCYQANKAGFKAVYYPNGEIIHYIGQAATKSRILEHHHHHH", "soluble on expression in E. coli": "soluble"}
{"sequence": "MDTIDLGNNESLVYGVFPNQDGTFTAMTYTKSKTFKTENGARRWLERNSGE", "soluble on expression in E. coli": "soluble"}
{"sequence": "MPFPSRSLRATLCSAPVRMPDAAQKNAATPPPPLALSKPSPSPWAALLTPSSLSFPCSPSLPTYRRTRTAMHGSPPARGLQRRIKVPLMASAPSSIAFDIAAPTAAAWIARWMPVASPRRCSPLLRLCGDYPRCAVAAALSCQRLWIRSTSPLACSTAAGQTRSTPKMTKRPRRGIRRPSRAAGRLGSDTEEAENAALCQRHPEEHAGIFQSQHIKPFPVRAAIDIGTGGVVSLCVARVDATVGAIQKLMYQTQLPLHLEALPTSMSSPSSPLSASSSSFTLSERTMEDITNKVHILQGAMRRNAFEGLSERAAVLSWPLCLARNAGQLAERLTKEFKVDVRVLGADFDVEWPPSVARFLAGEGASTPETADDSRSTVDKGTRDSVTRKGAENTLKSLLCAARAPTTSGLARHKRKVTAPPSSGSASSRGAMDARTQLDTLAFLAHAAVSQCVAPQRLLVLHEDPQRGLRLLGLGTSAADDIADLLDDATTPEERQSLYAIAHGPGPSLLEAGERTPSSGKQVFVAAHAQSRQQASLLPTLSSMRDCQGSADDGTSSDAAPAAASLMRLVEHPLPVDVASAHRYCITQIQRRPLESYGLHASSPNPLLADEFAALRGLLVGMIQPTLPAWVRRKAQLGGVLCGTSHNGGLLNLAARVSQQTHVSLEHLEVHAQYHFCGLTDVLLAESFPNPFLVLPSVALTAAVLRSLESPRITYLPEVSVAAALLVQPSLWLHARATEVRARLARDPFYASTTAAQRGRMFGRPHRKDNPTAAPDATWVKEGRWNPISFSESMRGT", "soluble on expression in E. coli": "not soluble"}
